# Assays:
# [1] = molecular target: endogenous EPCR expressed on EA.hy926 cells (human (endogenous in EA.hy926)) (UniProt Q9UNN8); test: binding to cells, read-out not stated
# [2] = molecular target: Soluble wild-type EPCR (endothelial protein C receptor) (UniProt Q9UNN8)
# [3] = molecular target: endogenous EPCR expressed on EA.hy926 cells (human (endogenous in EA.hy926)) (UniProt Q9UNN8); test: on-cell western
# [4] = molecular target: Soluble wild-type EPCR (endothelial protein C receptor) (UniProt Q9UNN8); test: ELISA
# [5] = molecular target: E86A-sEPCR (soluble EPCR variant) (UniProt Q9UNN8); test: ELISA
substance,measurement,setting,value
recombinant CIDRα1.1 domain derived from FCR3 IT4VAR20 PfEMP1 (domain or fragment),CIDRα1.1 concentration at complete inhibition of APC binding to endothelial EPCR,[1],100 nM
same,IC50,[1],33 nM
same,CIDRα1.1 concentration at complete inhibition of APC binding to sEPCR,[2],50 nM
same,IC50,[2],12.5 nM
same,Kd,[3],8 nM
same,Kd,[4],4.3 nM
same,Kd,[5],4.4 nM
